Data on two molecules can be found in US20070178572A1, “Protein crystal structure” (priority 2003, published 2007).

Numbering of substitutions follows the chain as printed. Read-outs that look alike come from different tables or passages of the source.

The subject of one data set is H3 20mer peptide. Kind of data set: Analytical analysis of histone methylation (HPLC separation and MALDI of reaction products). The data set is classed as biochemical, human. The note with it: unmodified peptide and AdoMet, reaction driven essentially to completion. As to the method: The histone methyltransferase assay for analytical purposes was carried out under slightly different conditions than those described in Example 1.2. For analytical purposes the reaction was performed at 37° C. in 50 mM Tris-HCl, pH 8.0, 100 mM NaCl, 1 mM DTT, with 300 μM AdoMet (Fluka, Switzerland), 100 μM H3 20mer peptide ([…]), and with 1.5 μM enzyme. At desired time intervals an aliquot of the reaction was removed and quenched in 8 M urea and acidified with glacial acetic acid. The reaction products were separated by reverse phase HPLC (Jasco (UK) Ltd) on a Zorbax 300SB-C18 column (Rockland Technologies, Inc. USA) using a gradient from 0 to 40% acetonitrile in the presence of 0.05% trifluoroacetic acid at 55° C. Fractions from the peptide peak were analysed using a Reflex III MALDI time-of-flight mass spectrometer (Bruker Daltonik, GmbH, Germany) to obtain positive ion mass spectra.
The present inventors have further analysed the methylation reaction. Reaction mixtures were set up with unmodified peptide and AdoMet and conditions found where the reaction was driven essentially to completion. […] The reason for SET 7/9 acting as a mono-methyltransferase is readily apparent from the crystal structure now presented. The peptide used for crystallization was synthesised using mono-methylated lysine at position 4. […]

Data set [1] concerns histone H3 peptide. Kind of data set: HMTase activity measurements (histone methyltransferase assay, [methyl-3H] AdoMet, scintillation counting). The data set is classed as biochemical, human. As to the method:
The methyltransferase activity of SET7/9 and the various mutant constructs described in the text were determined in a reaction volume of 20 μl containing 3 μM AdoMet supplemented with [methyl-^3H] AdoMet (4 μCi) (Amersham Biosciences, UK) and […] purified methylase in reaction buffer (50 mM Tris pH 8.5, 100 mm NaCl, 1 mM EDTA, 1 mM DTT) with 50 μM histone peptide (see below). Following incubation at 37° C. for 60 min the reaction was vacuum blotted onto membrane (Hybond-C, Amersham Biosciences, UK) washed and activity measured by scintillation counting.

For data set [2], the system named is histone H3 peptide. The note with it: previously reported (Wilson et al, 2002); cited from earlier work.

B1: SET 7/9: human enzyme that specifically methylates lysine-4 of histone H3 (protein, UniProt Q8WTS6 1-366, looked up)
Histone-lysine …: MDSDDEMVEEAVEGHLDDDGLPHGFCTVTYSSTDRFEGNFVHGEKNGRGKFFFFDGSTLEGYYVDDALQGQGVYTYEDGGVLQGTYVDGELNGPAQEYDTDGRLIFKGQYKDNIRHGVCWIYYPDGGSLVGEVNEDGEMTGEKIAYVYPDERTALYGKFIDGEMIEGKLATLMSTEEGRPHFELMPGNSVYHFDKSTSSCISTNALLPDPYESERVYVAESLISSAGEGLFSKVAVGPNTVMSFYNGVRITHQEVDSRDWALNGNTLSLDEETVIDVPEPYNHVSKYCASLGHKANHSFTPNCIYDMFVHPRFGPIKCIRTLRAVEADEELTVAYGYDHSPPGKSGPEAPEWYQVELKAFQATQQK
As for B1, in the data set with H3 20mer peptide, the “methylation state of reaction product” value is “only mono-methylated peptide”.

B2: Y245>A: SET 7/9 histone methyltransferase with point mutation of Tyr-245 to alanine (protein, UniProt Q8WTS6 1-366, looked up, variant Y245A)
Histone-lysine …: B1 Histone-lysine … with Y245A
In the case of B2, the values for the HMTase activity result in the data set with histone H3 peptide [1] (mono-methylated Lys-4 substrate), in the data set with histone H3 peptide [1] (unmodified lysine substrate) and in the data set with histone H3 peptide [2] were “substantial activity”, “greatly reduced activity” and “dramatic reduction in HMTase activity”, respectively.
